B1: MYBL2 (parent)
chain: FPNRTDQQCQYRWLRVLNPDLVKG

Variants of: B1
Assay: protein stability index of a GFP-peptide fusion (GPS, HEK-293T) (PSI 1-6); higher = more stable
Details: c terminus: a fixed tail appended
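Further: lentivirally expressed fusions sorted by FACS into six bins by GFP to DsRed ratio, PSI derived from sequencing read proportions per bin multiplied by bin number.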

Going from FPNRTDQQAQYRWLRVLNPDLVKG [C9A] to FPNRTDQQDQYRWLRVLNPDLVKG [C9D], the protein stability index rises from 2 to 2.19.

Going from FPNRTDQQEQYRWLRVLNPDLVKG [C9E] to FPNRTDQQFQYRWLRVLNPDLVKG [C9F], the protein stability index rises from 1.86 to 2.38.

Compared with FPNRTDQQGQYRWLRVLNPDLVKG [C9G], FPNRTDQQHQYRWLRVLNPDLVKG [C9H] is higher in protein stability index: 1.97 for the first, 2.88 for the second.

Compared with FPNRTDQQIQYRWLRVLNPDLVKG [C9I], FPNRTDQQKQYRWLRVLNPDLVKG [C9K] is higher in protein stability index: 2.16 for the first, 2.76 for the second.

Compared with FPNRTDQQLQYRWLRVLNPDLVKG [C9L], FPNRTDQQMQYRWLRVLNPDLVKG [C9M] is higher in protein stability index: 2.26 for the first, 2.45 for the second.

Compared with FPNRTDQQNQYRWLRVLNPDLVKG [C9N], FPNRTDQQPQYRWLRVLNPDLVKG [C9P] is higher in protein stability index: 2.18 for the first, 2.5 for the second.

Compared with FPNRTDQQQQYRWLRVLNPDLVKG [C9Q], FPNRTDQQRQYRWLRVLNPDLVKG [C9R] is higher in protein stability index: 2.24 for the first, 2.85 for the second.

Compared with FPNRTDQQSQYRWLRVLNPDLVKG [C9S], FPNRTDQQTQYRWLRVLNPDLVKG [C9T] is higher in protein stability index: 2.45 for the first, 2.9 for the second.

Compared with FPNRTDQQVQYRWLRVLNPDLVKG [C9V], FPNRTDQQWQYRWLRVLNPDLVKG [C9W] is higher in protein stability index: 2.05 for the first, 2.51 for the second.

Compared with FPNRTDQQYQYRWLRVLNPDLVKG [C9Y], FPNRTDQQCAYRWLRVLNPDLVKG [Q10A] is lower in protein stability index: 2.49 for the first, 1.45 for the second.

First: FPNRTDQQCCYRWLRVLNPDLVKG [Q10C]
Second: FPNRTDQQCDYRWLRVLNPDLVKG [Q10D]
The protein stability index of the first is higher: 2.83 for the first, 2.04 for the second.

First: FPNRTDQQCEYRWLRVLNPDLVKG [Q10E]
Second: FPNRTDQQCFYRWLRVLNPDLVKG [Q10F]
The protein stability index of the first is higher: 2.23 for the first, 1.75 for the second.

First: FPNRTDQQCGYRWLRVLNPDLVKG [Q10G]
Second: FPNRTDQQCHYRWLRVLNPDLVKG [Q10H]
The protein stability index of the first is lower: 1.48 for the first, 2.35 for the second.

Compared with FPNRTDQQCIYRWLRVLNPDLVKG [Q10I], FPNRTDQQCKYRWLRVLNPDLVKG [Q10K] is higher in protein stability index: 1.79 for the first, 1.88 for the second.

Going from FPNRTDQQCLYRWLRVLNPDLVKG [Q10L] to FPNRTDQQCMYRWLRVLNPDLVKG [Q10M], the protein stability index falls from 2.34 to 1.47.

First: FPNRTDQQCNYRWLRVLNPDLVKG [Q10N]
Second: FPNRTDQQCPYRWLRVLNPDLVKG [Q10P]
The protein stability index of the first is lower: 1.76 for the first, 2.18 for the second.

Compared with FPNRTDQQCRYRWLRVLNPDLVKG [Q10R], FPNRTDQQCSYRWLRVLNPDLVKG [Q10S] is higher in protein stability index: 1.52 for the first, 2.48 for the second.

Going from FPNRTDQQCTYRWLRVLNPDLVKG [Q10T] to FPNRTDQQCVYRWLRVLNPDLVKG [Q10V], the protein stability index falls from 1.93 to 1.81.

Compared with FPNRTDQQCWYRWLRVLNPDLVKG [Q10W], FPNRTDQQCYYRWLRVLNPDLVKG [Q10Y] is lower in protein stability index: 2.4 for the first, 1.79 for the second.

First: FPNRTDQQCQARWLRVLNPDLVKG [Y11A]
Second: FPNRTDQQCQCRWLRVLNPDLVKG [Y11C]
The protein stability index of the first is lower: 2.16 for the first, 2.29 for the second.

Compared with FPNRTDQQCQDRWLRVLNPDLVKG [Y11D], FPNRTDQQCQERWLRVLNPDLVKG [Y11E] is higher in protein stability index: 2.91 for the first, 3.11 for the second.

Going from FPNRTDQQCQFRWLRVLNPDLVKG [Y11F] to FPNRTDQQCQGRWLRVLNPDLVKG [Y11G], the protein stability index rises from 1.95 to 2.31.

Going from FPNRTDQQCQHRWLRVLNPDLVKG [Y11H] to FPNRTDQQCQIRWLRVLNPDLVKG [Y11I], the protein stability index falls from 2.24 to 2.04.

First: FPNRTDQQCQKRWLRVLNPDLVKG [Y11K]
Second: FPNRTDQQCQLRWLRVLNPDLVKG [Y11L]
The protein stability index of the first is higher: 2.23 for the first, 2.1 for the second.

Going from FPNRTDQQCQMRWLRVLNPDLVKG [Y11M] to FPNRTDQQCQNRWLRVLNPDLVKG [Y11N], the protein stability index rises from 2.12 to 2.39.

Going from FPNRTDQQCQPRWLRVLNPDLVKG [Y11P] to FPNRTDQQCQQRWLRVLNPDLVKG [Y11Q], the protein stability index falls from 2.13 to 1.85.

First: FPNRTDQQCQRRWLRVLNPDLVKG [Y11R]
Second: FPNRTDQQCQSRWLRVLNPDLVKG [Y11S]
The protein stability index of the first is lower: 1.97 for the first, 2.11 for the second.

Compared with FPNRTDQQCQTRWLRVLNPDLVKG [Y11T], FPNRTDQQCQVRWLRVLNPDLVKG [Y11V] is lower in protein stability index: 2.36 for the first, 2.02 for the second.

Going from FPNRTDQQCQWRWLRVLNPDLVKG [Y11W] to FPNRTDQQCQYAWLRVLNPDLVKG [R12A], the protein stability index rises from 1.66 to 2.75.

Compared with FPNRTDQQCQYCWLRVLNPDLVKG [R12C], FPNRTDQQCQYDWLRVLNPDLVKG [R12D] is lower in protein stability index: 2.55 for the first, 1.19 for the second.

Compared with FPNRTDQQCQYEWLRVLNPDLVKG [R12E], FPNRTDQQCQYFWLRVLNPDLVKG [R12F] is higher in protein stability index: 1.74 for the first, 2.25 for the second.

Going from FPNRTDQQCQYGWLRVLNPDLVKG [R12G] to FPNRTDQQCQYHWLRVLNPDLVKG [R12H], the protein stability index rises from 1.59 to 3.76.

First: FPNRTDQQCQYIWLRVLNPDLVKG [R12I]
Second: FPNRTDQQCQYKWLRVLNPDLVKG [R12K]
The protein stability index of the first is lower: 1.97 for the first, 2.25 for the second.

Going from FPNRTDQQCQYLWLRVLNPDLVKG [R12L] to FPNRTDQQCQYMWLRVLNPDLVKG [R12M], the protein stability index rises from 1.45 to 1.96.

Compared with FPNRTDQQCQYNWLRVLNPDLVKG [R12N], FPNRTDQQCQYPWLRVLNPDLVKG [R12P] is higher in protein stability index: 1.69 for the first, 1.96 for the second.

Compared with FPNRTDQQCQYQWLRVLNPDLVKG [R12Q], FPNRTDQQCQYSWLRVLNPDLVKG [R12S] is higher in protein stability index: 2.21 for the first, 2.25 for the second.

First: FPNRTDQQCQYTWLRVLNPDLVKG [R12T]
Second: FPNRTDQQCQYWWLRVLNPDLVKG [R12W]
The protein stability index of the first is lower: 1.66 for the first, 1.95 for the second.

First: FPNRTDQQCQYYWLRVLNPDLVKG [R12Y]
Second: FPNRTDQQCQYRALRVLNPDLVKG [W13A]
The protein stability index of the first is lower: 2.46 for the first, 2.59 for the second.

First: FPNRTDQQCQYRCLRVLNPDLVKG [W13C]
Second: FPNRTDQQCQYRDLRVLNPDLVKG [W13D]
The protein stability index of the first is lower: 2.01 for the first, 2.98 for the second.

Compared with FPNRTDQQCQYRELRVLNPDLVKG [W13E], FPNRTDQQCQYRFLRVLNPDLVKG [W13F] is lower in protein stability index: 3.26 for the first, 2.75 for the second.

Compared with FPNRTDQQCQYRGLRVLNPDLVKG [W13G], FPNRTDQQCQYRHLRVLNPDLVKG [W13H] is lower in protein stability index: 3.56 for the first, 2.56 for the second.

Compared with FPNRTDQQCQYRILRVLNPDLVKG [W13I], FPNRTDQQCQYRKLRVLNPDLVKG [W13K] is higher in protein stability index: 1.91 for the first, 3.05 for the second.

Going from FPNRTDQQCQYRLLRVLNPDLVKG [W13L] to FPNRTDQQCQYRMLRVLNPDLVKG [W13M], the protein stability index rises from 2.08 to 2.27.

Compared with FPNRTDQQCQYRNLRVLNPDLVKG [W13N], FPNRTDQQCQYRPLRVLNPDLVKG [W13P] is higher in protein stability index: 2.81 for the first, 3.71 for the second.

Compared with FPNRTDQQCQYRQLRVLNPDLVKG [W13Q], FPNRTDQQCQYRSLRVLNPDLVKG [W13S] is lower in protein stability index: 3.1 for the first, 3.03 for the second.

Compared with FPNRTDQQCQYRTLRVLNPDLVKG [W13T], FPNRTDQQCQYRVLRVLNPDLVKG [W13V] is lower in protein stability index: 2.52 for the first, 2.39 for the second.

Compared with FPNRTDQQCQYRYLRVLNPDLVKG [W13Y], FPNRTDQQCQYRWARVLNPDLVKG [L14A] is higher in protein stability index: 2.26 for the first, 3.17 for the second.

Reference: the supplement of paper PMC10567573
